Biological target: Sulfolobus solfataricus heat shock 20.1 (Sulfolobus solfataricus P2)
Assay: SEC

stoichiometry N: 24 subunits
Substance: Sulfolobus solfataricus heat shock 20.1 (natural protein)
